{"source": "patent US20180371076A1", "about": "“MATERNAL TH17 CELLS AND PSYCHIATRIC DISORDERS” (New York University, priority 2017, published 2018)", "key": {"[1]": {"test_system": "offspring of pregnant mice (MIA mouse model)", "experiment": "Ultrasonic vocalization (USV) assay in pups, MIA mouse model", "assay_type": "in vivo", "method": "Maternal Immune Activation. Mice were mated overnight and females were checked daily for the presence of seminal plugs, noted as embryonic day 0.5 (E0.5). On E12.5, pregnant female mice were weighed and injected with a single dose (20 mg/kg; i.p.) of poly(I:C) (Sigma Aldrich) or PBS vehicle. Each dam was returned to its cage and left undisturbed until the birth of its litter. All pups remained with the mother until weaning on postnatal day 21 (P21), at which time mice were group housed at maximum 5 per cage with same-sex littermates. For the IL-17 cytokine blockade experiment, monoclonal IL-17a blocking antibody (clone 50104; R&D) or isotype control antibody (IgG2a, clone 54447; R&D) was administered 6 h before maternal immune activation (FIG. 2) via i.p. route (500 μg/animal) or 2 days after maternal immune activation (FIG. 5) via i.p. route (500 μg/animal).\nUltrasonic vocalizations. On postnatal day 9, mice were removed from the nest and placed in a 15-cm diameter dish in a sound-attenuated chamber. Mouse ultrasonic vocalizations (USVs) were detected for 3 min using an UltraSoundGateCM16/CMPA microphone (AviSoft) in the chamber under stable temperature and light control, and recorded with SAS Prolab software (AviSoft). For certain USV tests, Ultravox software (Noldus information Technology, USA) was used. An amplitude filter was used to eliminate extraneous peripheral noise (i.e. HVAC). Due to the unreliability of automated USV scoring, all pup USVs were measured and confirmed manually by observers blind to the experimental conditions.\nMaternal Immune Activation Mice were mated overnight and females were checked daily for the presence of seminal plugs, noted as embryonic day 0.5 (E0.5). On E12.5, pregnant female mice were weighed and injected with a single dose (20 mg/kg; i.p.) of poly(I:C) (Sigma Aldrich) or PBS vehicle. Each dam was returned to its cage and left undisturbed until the birth of its litter. All pups remained with the mother until weaning on postnatal day 21 (P21), at which time mice were group housed at maximum 5 per cage with same-sex littermates. For the IL-17 cytokine blockade experiment, monoclonal IL-17a blocking antibody (clone 50104; R&D) or isotype control antibody (IgG2a, clone 54447; R&D) were administered 6 h before maternal immune activation via i.p. route (500 μg/animal). For IL-6 cytokine injection into pregnant dams, carrier-free recombinant mouse IL-6 (R&D) was administered as a single dose (10 μg/animal; i.p.). For testing anti-IL17a therapeutic effects, IL-17a blocking antibody or isotype control antibody (as described above) was administered 2 days after maternal immune activation (500 μg/animal; i.p.).\nUltrasonic vocalizations On postnatal day 7-9, both male and female mice were removed from the nest and habituated to the testing room for 15 minutes (separate of dam). After the habituation period, mouse pups were placed in a clean 15 cm glass pyrex high wall dish. Mouse pup ultrasonic vocalizations (USVs) were then detected for 3 min using an UltraSoundGateCM16/CMPA microphone (AviSoft) in the sound attenuation chamber under stable temperature and light control (15 lux), and recorded with SAS Prolab software (AviSoft). USVs were measured between 33-125 kHz. USVs were scored as contiguous if gaps between vocalizations were <0.02 msec. For certain USV tests, Ultravox software (Noldus information Technology, USA) was used. An amplitude filter was used to eliminate extraneous peripheral noise (i.e. HVAC). Due to the unreliability of automated USV scoring, all pup USVs were measured and confirmed manually by observers blind to the experimental conditions.\nIntraventricular cytokine injection At E14.5, uterine horns of pregnant mice were exposed by a caudal ventral midline incision (<2 cm). Each uterine horn was exteriorized carefully and each fetus was identified. […]"}, "[2]": {"test_system": "cortex of the fetal brain", "experiment": "Cortical development: SATB2/TBR1/CTIP2 immunohistochemistry of fetal and adult offspring brain", "assay_type": "in vivo, mouse", "method": "Immunohistochemistry. Animals were transcardially perfused with 4% paraformaldehyde in PBS under Ketamine/xylazine anesthesia. The brains were removed and sectioned at 100-μm thickness with a Leica VT1000S vibratome (Leica, USA). Slices were permeabilized with blocking solution containing 0.4% Triton X-100, 2% goat serum, and 1% BSA in PBS for 1 hr at room temperature, and then incubated with anti-TBR1 (ab31940, Abcam), anti-SATB2 (ab51502, Abcam) and anti-CTIP2 (ab18465, Abcam) antibodies overnight at 4° C. The following day, slices were incubated with fluorescently conjugated secondary antibodies (Invitrogen, USA) for 1 h at room temperature, and mounted in vectashield mounting medium with DAPI (Vector laboratories). Images of stained brain slices were acquired using a confocal microscope (LSM710; Carl Zeiss) with a 20× objective lens; all image settings were kept constant.\nIntraventricular cytokine injection At E14.5, uterine horns of pregnant mice were exposed by a caudal ventral midline incision (<2 cm). Each uterine horn was exteriorized carefully and each fetus was identified. Recombinant mouse IL-17a cytokine (R&D, 0.6 μL of 2 ng/μL), IL-6 (R&D, 0.6 μL of 10 ng/μL) or saline together with the dye Fast Green (Sigma, 0.3 mg/mL) was injected (3-4 μL) into the third ventricle of each embryo by a pulled micropipette. After injection of all embryos, the uterus was replaced within the abdomen and the cavity was lavaged with warm sterile saline.\nImmunohistochemistry Fetal brains of male embryos were dissected and fixed with 4% paraformaldehyde in PBS for 6 h at 4° C. Adult brains of male offspring were perfused and fixed with 4% paraformaldehyde in PBS for overnight at 4° C. The brains were removed and sectioned at 50-μm thickness with a Leica VT1000S vibratome (Leica, USA). Slices were permeabilized with blocking solution containing 0.4% Triton X-100, 2% goat serum, and 1% BSA in PBS for 1 h at room temperature, and then incubated with anti-TBR1 (ab31940, Abcam), anti-SATB2 (ab51502, Abcam), and anti-CTIP2 (ab18465, Abcam) antibodies overnight at 4° C. The following day, slices were incubated with fluorescently conjugated secondary antibodies (Invitrogen, USA) for 1 h at room temperature, and mounted in vectashield mounting medium with DAPI (Vector laboratories). Images of stained brain slices were acquired using a confocal microscope (LSM710; Carl Zeiss) with a 20× objective lens; all image settings were kept constant. Spatial locations of the patches were registered based on their distance from the midline of the brain. These cortical malformations were quantified using cropped images containing the malformations, or the corresponding region in WT brains. The region of interest (300×300 μm^2) was divided into 10 equal laminar blocks representing different depths of the cortical plate. SATB2-, TBR1-, or […] cells were counted using Image J software. Signal intensity in each image was normalized relative to the total signal intensity."}, "[3]": {"conditions": "injection into pregnant WT mothers (10 μg/animal; i.p.)"}}}
{"molecule": "poly(I:C)", "values": [{"measurement": "number of pup USV calls", "setting": "[1]; poly(I:C)-injected mothers pretreated with control antibody, vs PBS-injected mothers", "result": "emitted more USV calls"}, {"measurement": "cortical thickness of the fetal brains at E18.5", "setting": "[2]; MIA (poly(I:C))", "result": "did not affect cortical thickness"}, {"measurement": "cortical cytoarchitecture at E18.5", "setting": "[2]; MIA (poly(I:C)) vs PBS", "result": "patch of disorganized cortical cytoarchitecture"}, {"measurement": "SATB2 and SATB2/TBR1 expression in fetal brain cortical plates at E14.5 and E18.5", "setting": "[2]; MIA (poly(I:C)) vs control", "result": "abnormal expression"}, {"measurement": "SATB2 expression at E14.5", "setting": "[2]; MIA (poly(I:C)) vs control", "result": "delayed expression of SATB2"}, {"measurement": "abnormal expression of SATB2, TBR1 and CTIP2 in adult offspring", "setting": "[2]; MIA adult offspring (P60)", "result": "maintained"}]}
{"molecule": "recombinant IL-6: carrier-free recombinant mouse IL-6 (R&D) (protein, UniProt P08505 25-211, looked up) Interleukin-6: FPTSQVRRGDFTEDTTPNRPVYTTSQVGGLITHVLWEIVEMRKELCNGNSDCMNNDDALAENNLKLPEIQRNDGCYQTGYNQEICLLKISSGLLEYHSYLEYMKNNLKDNKKDKARVLQRDTETLIHIFNQEVKDLHKIVLPTPISNALLTDKLESQKEWLRTKTIQFILKSLEEFLKVTLRSTRQT", "values": [{"measurement": "USV phenotype", "setting": "[1]; injection into WT fetal brains at E14.5", "result": "nor enhanced USV phenotypes were observed"}, {"measurement": "USV phenotype in offspring", "setting": "[1]; [3]", "result": "enhanced USV"}, {"measurement": "cortical phenotype in offspring", "setting": "[2]; [3]", "result": "sufficient to produce MIA-associated behavioral (enhanced USV) and cortical phenotypes"}]}
{"molecule": "recombinant IL-17a protein: Recombinant mouse IL-17a cytokine (R&D), injected into the fetal brain ventricle (protein, UniProt Q62386 26-158, looked up) Interleukin-17A: AAIIPQSSACPNTEAKDFLQNVKVNLKVFNSLGAKVSSRRPSDYLNRSTSPWTLHRNEDPDRYPSVIWEAQCRHQRCVNAEGKLDHHMNSVLIQQEILVLKREPESCPFTFRVEKMLVGVGCTCVASIVRQAA", "values": [{"measurement": "pup USVs", "setting": "[1]; injection into brains of fetuses from poly(I:C)-injected IL-6 KO mothers, vs PBS-injected controls", "result": "increased pup USVs"}, {"measurement": "USV phenotype", "setting": "[1]; injection into the ventricles of IL-17Ra KO fetuses", "result": "nor enhanced USV phenotypes were observed"}, {"measurement": "USV phenotype", "setting": "[1]; intra-ventricular injection at E14.5, compared with sham injection", "result": "enhanced USV phenotype"}, {"measurement": "cortical organization (SATB2, TBR1) at E18.5", "setting": "[2]; injected into the ventricles of the fetal brain at E14.5 in the absence of MIA", "result": "appearance of disorganized cortical patches"}, {"measurement": "thickness of the cortical plate at E18.5", "setting": "[2]; intra-ventricular injection at E14.5", "result": "thinned cortical plates at the medial but not lateral part of the brain"}]}
